# Assays:
# [1] = tested on: NF-κB; assay: ELISA-based transcription factor binding assay, 786-O nuclear extracts; format: cell-based, human; settings: 2 h, IFI16 25 μg/ml, LPS-EB 10 ng/ml
# Experimental: (§1) Nuclear extracts were prepared using NE-PER Nuclear and Cytoplasmic Extraction Reagents (Thermo Fisher Scientific), according to the manufacturer’s instructions. NF-κB binding activity to a DNA probe containing its binding consensus sequence was measured by Universal Transcription Factor Assay Colorimetric kit (Merck Millipore). […] The following biotinylated oligonucleotides were used: sense (biotin): 5’-[…]-3’; antisense: 5’-[…]-3’.
# [2] = tested on: NF-κB; assay: ELISA-based transcription factor binding assay, THP-1 nuclear extracts; format: cell-based, human; settings: 2 h, IFI16 25 μg/ml, LPS-EB 10 ng/ml
# Experimental: as §1
# [3] = tested on: 786-O cells; assay: Cytokine release by ELISA in 786-O culture supernatants; format: cell-based, human; settings: 24 h post-treatment, 25 μg/ml, alone or complexed with LPS
# Experimental: (§2) For treatments, cells were stimulated in complete medium with endotoxin-free IFI16 (25 μg/ml), endotoxin-free IFI16ΔHINB (25 μg/ml), MPLA, DPLA, LPS-F583, LPS-EB, LPS-RS, alone or pre-complexed by O/N incubation at 4°C, unless specified otherwise. Additionally, cells were stimulated with supernatants of untreated or UVB-treated U2OS or U2OS-IFI16^-/- cells alone or preincubated O/N at 4°C with LPS-EB, or LPS-RS. LPS variants or lipid A moieties were used at a concentration of 10 ng/ml. All treatments were carried out at 37°C and 5% CO2.
# Cytokines secreted in culture supernatants after treatments were analyzed using human IL-6 DuoSet ELISA and human IL-8 DuoSet ELISA (all from R&D Systems), human TNF-α Uncoated ELISA and human IL-1β Uncoated ELISA (Thermo Fisher Scientific) according to the manufacturer’s instructions. Absorbance was measured using a Spark multimode microplate reader (Tecan).
# [4] = biological target: T1, TLR4/MD2 receptor (Homo sapiens, UniProt O00206+Q9Y6Y9); assay: Co-immunoprecipitation with anti-TLR4 antibody from treated 786-O cells; format: cell-based; design: endogenous in cells; host or cells: 786-O; settings: 786-O cells stimulated 1 h; extracts untreated or DNase I-treated
# Experimental: Co-immunoprecipitation of TLR4 with interacting proteins was performed using the Dynabeads Protein G Immunoprecipitation Kit (ThermoFisher), according to the manufacturer’s instructions with minor modifications. Briefly, after lysis of treated cells, 20 μg of total cell extracts were kept as the input control, while 90 μg of total cell extracts were incubated for 1 h at RT with 2.5 μg of anti-TLR4 antibody previously conjugated with magnetic beads. The resulting complexes were then washed, eluted, denatured, and subjected to Western blotting as described above. For DNase-treated cell extracts, DNase I (Sigma Aldrich) was added at a 1:10 dilution and incubated for 15 min at RT. Images were acquired, and densitometry of the bands was performed using Quantity One software (version 4.6.9, Bio-Rad). Densitometry values were normalized using the corresponding loading controls.
# Target sequence in this assay (O00206 24-839): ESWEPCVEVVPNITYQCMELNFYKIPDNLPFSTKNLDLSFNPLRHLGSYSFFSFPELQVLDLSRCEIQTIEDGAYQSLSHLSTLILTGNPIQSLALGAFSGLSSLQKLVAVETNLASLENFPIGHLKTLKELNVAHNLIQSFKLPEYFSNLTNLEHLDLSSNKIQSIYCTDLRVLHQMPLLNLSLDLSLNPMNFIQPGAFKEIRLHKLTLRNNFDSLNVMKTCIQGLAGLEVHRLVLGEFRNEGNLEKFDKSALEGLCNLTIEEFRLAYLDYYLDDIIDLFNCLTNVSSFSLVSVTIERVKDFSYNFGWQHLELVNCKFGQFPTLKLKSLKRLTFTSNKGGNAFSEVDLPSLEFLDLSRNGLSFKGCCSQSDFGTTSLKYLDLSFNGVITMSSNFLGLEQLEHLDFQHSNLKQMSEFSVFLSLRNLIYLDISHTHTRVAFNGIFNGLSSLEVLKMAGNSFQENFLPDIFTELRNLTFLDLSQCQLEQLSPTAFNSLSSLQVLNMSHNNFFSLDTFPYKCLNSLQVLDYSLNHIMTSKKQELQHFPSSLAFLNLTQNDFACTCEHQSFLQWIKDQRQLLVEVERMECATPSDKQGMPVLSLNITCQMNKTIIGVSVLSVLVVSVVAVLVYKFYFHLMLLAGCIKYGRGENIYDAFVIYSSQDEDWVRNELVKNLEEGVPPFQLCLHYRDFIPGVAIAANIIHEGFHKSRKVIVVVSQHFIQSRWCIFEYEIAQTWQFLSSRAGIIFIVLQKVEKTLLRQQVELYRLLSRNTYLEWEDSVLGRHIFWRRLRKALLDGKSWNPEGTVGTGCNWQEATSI
# Target sequence in this assay (Q9Y6Y9 17-160 limits assumed): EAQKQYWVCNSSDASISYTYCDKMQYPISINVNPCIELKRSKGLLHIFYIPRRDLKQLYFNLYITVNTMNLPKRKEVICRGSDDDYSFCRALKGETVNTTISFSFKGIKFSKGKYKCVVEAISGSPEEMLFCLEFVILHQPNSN
# [5] = biological target: T1, TLR4/MD2 receptor; assay: SPR, analytes over immobilized TLR4/MD2; format: binding; design: purchased R&D Systems 3146-TM-050/CF
# Experimental: The Biacore X100 (GE Healthcare) instrument was used for real-time binding interaction experiments. Recombinant TLR4 or TLR4/MD2 complex was covalently immobilized onto the surface of sensor CM5 (cat # BR100012, GE Healthcare) chips via amine coupling. TLR4 was diluted to a concentration of 10 μg/ml in 10 mM sodium acetate at pH 4.0, while TLR4/MD2 complex was diluted to a concentration of 20 μg/ml in the same buffer. Both proteins were injected on CM5 chips at a flow rate of 10 μl/min, upon activation of the carboxyl groups on the sensor surface with 7-min injection of a mixture of 0.2 M EDC and 0.05 M NHS. The remaining esters were blocked with 7-min injection of ethanolamine. Taking into account the ligands (TLR4 or TLR4/MD2) and analytes (IFI16, LPS-EB or IFI16/LPS-EB) molecular weights (MW) of 70 or 90 kDa, and 90, 10 or 100 kDa respectively, the appropriate ligand density (RL) on the chip was calculated according to the following equation: RL = (ligand MW/analyte MW) × Rmax × (1/Sm), where Rmax is the maximum binding signal and Sm corresponds to the binding stoichiometry. The target capture level of the TLR4 or TLR4/MD2 was of 596.0 or 1,223.9 response units (RUs), respectively. […] Increasing concentrations of endotoxin-free IFI16, LPS-EB or IFI16/LPS-EB complex were flowed over the CM5 sensor chip coated with TLR4 or TLR4/MD2 at a flow rate of 30 μl/min at 25°C with an association time of 120 s for IFI16 alone and the IFI16/LPS-EB complex, and 180 s for LPS-EB, and a dissociation phase of 180 s for IFI16 and IFI16/LPS-EB complex or 600 s for LPS-EB. A single regeneration step with 50 mM NaOH was performed following each analytic cycle. All the analytes tested were diluted in the HBS-EP+ buffer (GE Healthcare). […]
# Target sequence in this assay (O00206 24-631 limits assumed): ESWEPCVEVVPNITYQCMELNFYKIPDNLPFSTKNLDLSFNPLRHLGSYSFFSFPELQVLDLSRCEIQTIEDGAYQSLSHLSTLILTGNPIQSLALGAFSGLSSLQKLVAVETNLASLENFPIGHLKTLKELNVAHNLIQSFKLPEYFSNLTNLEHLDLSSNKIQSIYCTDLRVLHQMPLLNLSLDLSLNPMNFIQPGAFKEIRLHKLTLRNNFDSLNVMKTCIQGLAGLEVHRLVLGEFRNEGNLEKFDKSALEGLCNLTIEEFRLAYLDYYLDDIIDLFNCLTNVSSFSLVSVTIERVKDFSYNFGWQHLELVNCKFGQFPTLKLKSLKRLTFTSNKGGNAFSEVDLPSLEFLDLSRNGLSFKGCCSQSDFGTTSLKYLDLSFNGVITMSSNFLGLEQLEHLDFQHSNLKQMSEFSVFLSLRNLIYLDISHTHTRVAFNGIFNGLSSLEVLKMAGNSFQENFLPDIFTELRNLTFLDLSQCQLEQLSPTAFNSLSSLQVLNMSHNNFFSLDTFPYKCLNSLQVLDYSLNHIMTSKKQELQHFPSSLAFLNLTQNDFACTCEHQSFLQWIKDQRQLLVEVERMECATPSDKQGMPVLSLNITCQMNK
# Target sequence in this assay (Q9Y6Y9 17-160 limits assumed): as the sequence (Q9Y6Y9 17-160 limits assumed) above
# [6] = tested on: gram-positive bacteria (Staphylococcus aureus, Staphylococcus epidermidis, Streptococcus pyogenes); assay: Whole cell ELISA on formalin-fixed gram-positive bacteria; format: binding; settings: formalin-fixed bacteria as solid phase
# Experimental: (§3) For whole-cell ELISA, different strains of bacteria (i.e., gram-positive: Staphylococcus aureus, Staphylococcus epidermidis and Streptococcus pyogenes; gram-negative: Escherichia coli and Klebsiella pneumonia) were grown in LB medium without antibiotics and, after washing with 1X PBS, fixed in 0.5% formalin O/N at 4°C. Subsequently, the bacteria were diluted to an OD600 of 0.5 and were used to coat microtiter plates O/N at 37°C. After blocking, increasing concentrations of IFI16 were added to the wells and incubated for 2 h at RT. Anti-IFI16 antibodies against the N-terminus of the protein and HRP-labelled anti-rabbit IgG were then added as primary and secondary antibody, respectively, and binding was detected as described above.
# [7] = tested on: gram-negative bacteria (E. coli, Klebsiella pneumoniae); assay: Whole cell ELISA on formalin-fixed gram-negative bacteria; format: binding; settings: formalin-fixed bacteria as solid phase
# Experimental: as §3
# [8] = tested on: THP-1 cells; assay: qRT-PCR of proinflammatory cytokine mRNA in THP-1 cells; format: cell-based, human; settings: 24 h, IFI16 25 μg/ml, over mock-treated cells
# Experimental: as §2
# (§4) Quantitative real-time PCR (qRT-PCR) was performed on a CFX96 Real-Time PCR Detection System (Bio-Rad) as previously described. Total RNA was extracted using TRI Reagent (Sigma-Aldrich), and 1 μg was retrotranscribed using an iScript cDNA Synthesis Kit (Bio-Rad). Reverse-transcribed cDNAs were amplified in duplicate using SsoAdvanced Universal SYBR Green Supermix (Bio-Rad). The glyceraldehyde 3-phosphate dehydrogenase (GAPDH) gene was used as housekeeping gene to normalize for variations in cDNA levels. The relative normalized expression after stimulation as compared to control was calculated as fold change = 2 ^-Δ(ΔCT) where ΔCT = CTtarget—CTGADPH and Δ(ΔCT) = ΔCTstimulated - ΔCTcontrol. The primer sequences are available upon request.
# [9] = biological target: T2, TLR4 (Homo sapiens, UniProt O00206); assay: SPR, IFI16 over immobilized TLR4; format: binding; settings: IFI16 31.25–1,000 nM over immobilized TLR4; read-out: equilibrium dissociation constant (KD)
# T2 construct: purchased R&D Systems 478-TR-050
# T2 sequence (O00206 24-631 limits assumed): as the sequence (O00206 24-631 limits assumed) above
# Experimental: The Biacore X100 (GE Healthcare) instrument was used for real-time binding interaction experiments. Recombinant TLR4 or TLR4/MD2 complex was covalently immobilized onto the surface of sensor CM5 (cat # BR100012, GE Healthcare) chips via amine coupling. TLR4 was diluted to a concentration of 10 μg/ml in 10 mM sodium acetate at pH 4.0, while TLR4/MD2 complex was diluted to a concentration of 20 μg/ml in the same buffer. Both proteins were injected on CM5 chips at a flow rate of 10 μl/min, upon activation of the carboxyl groups on the sensor surface with 7-min injection of a mixture of 0.2 M EDC and 0.05 M NHS. The remaining esters were blocked with 7-min injection of ethanolamine. Taking into account the ligands (TLR4 or TLR4/MD2) and analytes (IFI16, LPS-EB or IFI16/LPS-EB) molecular weights (MW) of 70 or 90 kDa, and 90, 10 or 100 kDa respectively, the appropriate ligand density (RL) on the chip was calculated according to the following equation: RL = (ligand MW/analyte MW) × Rmax × (1/Sm), where Rmax is the maximum binding signal and Sm corresponds to the binding stoichiometry. The target capture level of the TLR4 or TLR4/MD2 was of 596.0 or 1,223.9 response units (RUs), respectively. […]
# [10] = tested on: 786-O cells; assay: qRT-PCR of proinflammatory cytokine mRNA in 786-O cells; format: cell-based, human; settings: 24 h, IFI16 25 μg/ml, over mock-treated cells
# Experimental: as §2, §4
# [11] = In vitro pull-down assay with biotin-LPS-EB and streptavidin beads; format: binding, E. coli O111:B4; settings: 3 μg recombinant protein; 10 μg biotin-LPS-EB
# Experimental: Biotin-labeled LPS-EB (10 μg) was incubated with 30 μl of streptavidin sepharose high performance beads (GE Healthcare) for 3 h at 4°C. After a washing step, 3 μg of recombinant IFI16, PYRIN, HINA, HINB, IFI16ΔHINB, or GST were added and incubated O/N at 4°C. After five washes with 1X PBS with 0.25% Triton X-100 (Sigma-Aldrich), samples were boiled in sample buffer containing SDS and β-mercaptoethanol and centrifuged. Supernatants were separated on a 7.5% or 12% SDS-polyacrylamide gel (Bio-Rad). Gels were stained with Coomassie brilliant blue (Serva Electrophoresis GmbH) for protein visualization.
molecule,measurement,setting,value
"IFI16: human recombinant IFI16 protein, endotoxin-free (protein) MGKKYKNIVLLKGLEVINDYHFRMVKSLLSNDLKLNLKMREEYDKIQIADLMEEKFRGDAGLGKLIKIFEDIPTLEDLAETLKKEKLKVKGPALSRKRKKEVDATSPAPSTSSTVKTEGAEATPGAQKRKKSTKEKAGPKGSKVSEEQTQPPSPAGAGMSTAMGRSPSPKTSLSAPPNSSSTENPKTVAKCQVTPRRNVLQKRPVIVKVLSTTKPFEYETPEMEKKIMFHATVATQTQFFHVKVLNTSLKEKFNGKKIIIISDYLEYDSLLEVNEESTVSEAGPNQTFEVPNKIINRAKETLKIDILHKQASGNIVYGVFMLHKKTVNQKTTIYEIQDDRGKMDVVGTGQCHNIPCEEGDKLQLFCFRLRKKNQMSKLISEMHSFIQIKKKTNPRNNDPKSMKLPQEQRQLPYPSEASTTFPESHLRTPQMPPTTPSSSFFTKKSEDTISKMNDFMRMQILKEGSHFPGPFMTSIGPAESHPHTPQMPPSTPSSSFLTTLKPRLKTEPEEVSIEDSAQSDLKEVMVLNATESFVYEPKEQKKMFHATVATENEVFRVKVFNIDLKEKFTPKKIIAIANYVCRNGFLEVYPFTLVADVNADRNMEIPKGLIRSASVTPKINQLCSQTKGSFVNGVFEVHKKNVRGEFTYYEIQDNTGKMEVVVHGRLTTINCEEGDKLKLTCFELAPKSGNTGELRSVIHSHIKVIKTRKNKKDILNPDSSMETSPDFFF",NF-κB binding activity fold induction vs untreated cells,[1],2.2 fold
same,NF-κB binding activity fold induction vs untreated cells,[2],2.4 fold
same,IL-1β release,[3],neither IFI16 nor IFI16ΔHINB per se or after forming a complex with LPS induced IL-1β release
same,Co-immunoprecipitation with TLR4/MD2,[4],co-immunoprecipitated with TLR4/MD2 receptor
same,dissociation rate constant (Kd),[5],0.00614 s⁻¹
same,Ka,[5]; association rate constant,9070 M⁻¹ s⁻¹
same,dissociation rate constant (koff),[5]; dissociation rate constant,0.00614 s⁻¹
same,Rmax,[5]; maximum response,26.09 RU
same,Kd,"[5]; text / Fig 8C legend, read-out: equilibrium dissociation constant (KD)",680 nM
same,IFI16 binding to gram-positive bacteria,[6],no IFI16 binding could be detected
same,IFI16 binding to surface of gram-negative bacteria,[7],strongly associated with the surface of both gram-negative bacteria species
same,IL-1β gene expression fold induction,[8],72 fold
same,Kd,[9],130 nM
same,IL-1β gene expression fold induction,[10],13 fold
same,Pull-down by biotin-LPS-EB (Coomassie band),[11],readily detect a highly reproducible ~100-kDa band
